# B1: Pre-miR-367: precursor of miR-367 purchased from Ambion; exemplified pre-miR367 precursor sequence SEQ ID NO:158 (nucleic acid)
# chain: CCAUUACUGUUGCUAAUAUGCAACUCUGUUGAAUAUAAAUUGGAAUUGCACUUUAGCAAUGGUGAUGG
# modifications: listed as RNA, chemistry not given here
# Assays:
# [1] = tested on: renal cell line 786-0; conditions: 786-0 renal cell line; publicly available GI50; cited from earlier work
# [2] = tested on: renal cell line TK-10; conditions: TK-10 renal cell line; publicly available GI50; cited from earlier work
# [3] = tested on: miR-367; test: Real-time quantitative RT-PCR of miR-367 after transfection, TK-10 cells; assay type: cell-based, human; conditions: 50 nM final, QPCR normalized to RNU44
# Experimental: (§1) miR-367 Transfection. Pre-miR-367 and Anti-miR-367 were purchased from Ambion. Log-phase cells (˜60% confluency) were transfected with 6.25 μM Pre-miR-367 or Anti-miR-367 using siPORT NeoFX transfection reagent (Ambion) at a final concentration of 50 nM according to manufacturer's instructions. Controls included transfection of a non-targeting miRNA (Negative Control #1).
# (§2) Real-time Quantitative RT-PCR of miRNA. Real-time Quantitative RT-PCR was used to validate successful miRNA transfection. TaqMan®MicroRNA Reverse Transcription kit (Applied Biosystems) was used to convert specific miRNAs to cDNA. RNU44 was used as control for quantification. Per Applied Biosystems' protocol, real-time PCR was performed adding 1.34 μl of each completed RT reaction to target TaqMan microRNA Assay reaction with TaqMan Universal PCR Master Mix (final reaction volume equal 20 μl). Samples (786-0 and TK-10 cell lines transfected with Pre-miR-367 precursor, Anti-miR-367 inhibitor, and Anti-miR-inhibitor Negative Control #1) were evaluated in triplicate and run on the Applied Biosystems 7900HT Fast Real-Time PCR System. Assay data was analyzed using SDS 2.2.2 software.
# [4] = tested on: miR-367; test: Real-time quantitative RT-PCR of miR-367 after transfection, 786-0 cells; assay type: cell-based, human; conditions: 50 nM final, QPCR normalized to RNU44
# Experimental: as §1, §2
# [5] = tested on: TK-10 cells; test: Growth inhibition assay (CellTiter-Glo), topotecan after miR-367 modulation; assay type: cell-based, human; conditions: TK-10 cells (topotecan resistant, low miR-367), topotecan 48 hours, 24 hours after transfection
# Experimental: as §1
# (§3) Growth inhibition assay. Topotecan, obtained from Sequola Research Products Ltd, was dissolved in DMSO (Sigma) at concentration of 20 mM and stored at −20° C. Cells were seeded in 96-well plates (Nunc) at a density of 5×10^5 cells per ml and incubated overnight at 37° C. Cells were incubated with the indicated concentrations of topotecan for 48 hours and cell viability was analyzed using the CellTiter-Glo™ luminescent cell viability assay kit (Promega). Luminescence was recorded using Wallac Victor^2™ 1420 Multilabel Counter (Perkin Elmer Life Sciences). Wells containing medium without cells were used to obtain background luminescence. All experimental wells and controls were set up in triplet.
# (§4) The effects of miR-367 modulation on topotecan-induced cell death and growth arrest were evaluated using the CellTiter-Glo' luminescent cell viability assay (FIG. 2). Twenty-four hours after transfection, cells were subject to 48 hours of topotecan treatment.
# [6] = tested on: 786-0 cells; test: as above; assay type: cell-based, human; conditions: 786-0 cells (topotecan sensitive, high miR-367), topotecan 48 hours, 24 hours after transfection
# Experimental: as §1, §3, §4
Molecule,log10 GI50 [1],log10 GI50 [2],miR-367 levels compared to non-targeting miRNA control [3],miR-367 levels compared to non-targeting miRNA control [4],change in sensitivity to topotecan-induced cell death and growth arrest vs non-targeting control [5],change in sensitivity to topotecan-induced cell death and growth arrest vs non-targeting control ([5]; listed as miR-367 precursor),change in sensitivity to topotecan-induced cell death and growth arrest vs non-targeting control ([5]; listed as pre-miR-367),change in sensitivity to topotecan-induced cell death and growth arrest vs non-targeting control ([5]; listed as precursor to miR-367),change in sensitivity to topotecan-induced cell death and growth arrest vs non-targeting control [6],change in sensitivity to topotecan-induced cell death and growth arrest vs non-targeting control ([6]; listed as pre-miR-367)
CC[C@@]1(O)C(=O)OCc2c1cc1n(c2=O)Cc2cc3c(CN(C)C)c(O)ccc3nc2-1 [Topotecan],−7.903,−5.279,,,,,,,,
B1,,,increase,increase,significantly increased cell death and growth arrest induced by topotecan,increased sensitivity to topotecan,increase in topotecan-induced cell death,significant increase in topotecan-induced cell death and growth arrest,No differences in topotecan sensitivity,increase in topotecan-induced cell death
